# Laboratory results reported in PMC9912195, “The 3D‐structure, kinetics and dynamics of the E. coli nitroreductase NfsA with NADP ^+ provide glimpses of its catalytic mechanism” (Febs Letters, 2022).
# Columns and labels:
# NfsA [1] = molecular target: T1, NfsA (Escherichia coli, UniProt P17117); experiment: stopped-flow re-oxidation of reduced enzyme, […] nm, anaerobic; type: biochemical; conditions: dithionite-reduced enzyme
# T1 construct: full-length, untagged, from pET24 derivative pPS1341A1 in E. coli BL21(lambda DE3); 240 amino acids
# T1 sequence (P17117 whole entry): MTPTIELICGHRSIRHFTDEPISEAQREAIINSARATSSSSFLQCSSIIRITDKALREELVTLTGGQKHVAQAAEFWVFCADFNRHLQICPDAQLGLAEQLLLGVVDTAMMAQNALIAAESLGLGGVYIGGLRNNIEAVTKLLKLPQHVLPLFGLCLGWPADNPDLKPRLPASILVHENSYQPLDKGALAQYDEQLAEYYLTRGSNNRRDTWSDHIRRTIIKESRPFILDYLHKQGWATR
# NfsA [2] = molecular target: T1, NfsA; experiment: steady-state inhibition of nitrofurazone reduction, global ping-pong fit, […] nm; type: biochemical
# NfsA [3] = molecular target: T1, NfsA; experiment: steady-state kinetics; type: biochemical; conditions: co-substrate NADPH
# [4] = tested on: NC(=O)C1=CN([C@@H]2O[C@H](COP(=O)(O)OP(=O)(O)OC[C@H]3O[C@@H](n4cnc5c(N)ncnc54)[C@H](O)[C@@H]3O)[C@@H](O)[C@H]2O)C=CC1; experiment: purified protein; type: biochemical, Escherichia coli; conditions: 100 μM nitrofurazone, 10 mM Tris pH 7.0, 4.5% DMSO, 25 °C
# [5] = tested on: NC(=O)C1=CN([C@@H]2O[C@H](COP(=O)(O)OP(=O)(O)OC[C@H]3O[C@@H](n4cnc5c(N)ncnc54)[C@H](OP(=O)(O)O)[C@@H]3O)[C@@H](O)[C@H]2O)C=CC1; experiment: purified protein; type: biochemical, Escherichia coli; conditions: 100 μM nitrofurazone, 10 mM Tris pH 7.0, 4.5% DMSO, 25 °C
# [6] = tested on: NC(=O)N/N=C/c1ccc([N+](=O)[O-])o1; experiment: purified protein; type: biochemical, Escherichia coli; conditions: co-substrate NADPH, 10 mM Tris pH 7.0, 50 mM NaCl, 4.5% DMSO, 25 °C
compound,measurement,setting,value
"NC(=O)c1cc(N2CC2)c([N+](=O)[O-])cc1[N+](=O)[O-] [CB1954, 5 aziridin‐1‐yl‐2,4 dinitrobenzamide]",K d,"NfsA [1]; 10 mM Tris pH 7, 5% DMSO, 25 °C, unreliable (extrapolated beyond highest concentration 500 μM)",660 ± 90 µM
NC(=O)c1ccc[n+]([C@@H]2O[C@H](COP(=O)(O)OP(=O)(O)OC[C@H]3O[C@@H](n4cnc5c(N)ncnc54)[C@H](OP(=O)(O)O)[C@@H]3O)[C@@H](O)[C@H]2O)c1 [NADP^+],Ki,NfsA [2],250 ± 70 µM
CC1=CC(=O)c2ccccc2C1=O [menadione],K d,"NfsA [1]; 10 mM Tris pH 7, 25 °C, unreliable (extrapolated, highest concentration 100 μM)",330 ± 115 µM
same,Km,NfsA [3],11 ± 2 µM
NfsA (Escherichia coli K-12),Km,[4],700 ± 100 µM
same,kcat,[4],20 ± 1 s⁻¹
same,kcat/Km,[4],27000 ± 3000 M⁻¹ s⁻¹
same,Km,[5],19 ± 4 µM
same,kcat,[5],24 ± 1 s⁻¹
same,kcat/Km,[5],1.2e+06 ± 200000 M⁻¹ s⁻¹
same,Km,[6],12 µM
same,kcat,[6],23.1 s⁻¹
